Data taken from patent US20210115130A1 (Innovent, published 2021).
Blank lines part the entries; values can stand above or below the binder they belong to.

Legend:
[1] = target: T1, human FcRn (Acro, Catalog No. FCM-H5286) (human, UniProt P55899 24-297; P61769 21-119); test: ForteBio Octet RED96 BLI, biotinylated antibody on SA sensor, FcRn in solution, 1:1 model
T1 construct: Bought protein
Method: First, the 17D1 humanized antibody, 17D1-YTE, and Gmab (guselkumab) prepared as described above were labeled with biotin, with the molar ratio of antibody to biotin being 1:3. The biotin was removed using a desalting column and the labeled samples were re-measured and stored for later use.
(§1) An appropriate amount of SA sensor (Fortebio, Catalog No. 18-5019) was soaked in the analysis buffer for 30 min. The biotinylated 17D1 humanized antibody, 17D1-YTE, and Gmab were diluted to 100 nM, and human FcRn (Acro, Catalog No. FCM-H5286) was serially two-fold diluted to 5 concentrations (5, 2.5, 1.25, 0.625, 0.3125 μg/mL). The sensor was first equilibrated in the analysis buffer for 120 s. Then the biotinylated antibodies were loaded on the SA sensor for 100 s of immobilization, and the sensor was equilibrated for another 120 s after immobilization. After the baseline was stabilized, the serially diluted FcRns binded to the sensors with the same antibody immobilization level. After 100 s for binding, the sensors were equilibrated in analysis buffer for 120 s to measure the binding and dissociation. The experimental data were analyzed using a 1:1 model.

[2] = target: T2, IL-23 (R&D Systems, Catalog No. 1290-IL-500/CF) (UniProt Q9NPF7 20-189; P29460 23-328); test: cell-based or functional assay
T2 sequence (looked up) 1: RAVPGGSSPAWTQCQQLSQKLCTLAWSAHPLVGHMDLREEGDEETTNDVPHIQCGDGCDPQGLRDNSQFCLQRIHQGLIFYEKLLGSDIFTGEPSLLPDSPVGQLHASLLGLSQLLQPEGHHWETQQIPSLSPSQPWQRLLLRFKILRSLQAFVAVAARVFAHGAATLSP
T2 sequence (looked up) 2: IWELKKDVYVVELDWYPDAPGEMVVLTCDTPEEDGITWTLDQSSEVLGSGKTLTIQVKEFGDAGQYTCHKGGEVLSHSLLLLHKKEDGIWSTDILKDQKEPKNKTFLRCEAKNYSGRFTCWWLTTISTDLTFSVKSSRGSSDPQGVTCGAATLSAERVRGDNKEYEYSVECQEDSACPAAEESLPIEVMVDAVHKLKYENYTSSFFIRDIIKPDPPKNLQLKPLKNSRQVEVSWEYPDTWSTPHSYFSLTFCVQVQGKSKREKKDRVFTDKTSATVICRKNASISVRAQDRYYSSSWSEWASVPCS

[3] = target: T3, human IL-12p40 (ACRO Biosystems, Cat #NK2-H52H7) (human, UniProt P29460 23-328); test: ForteBio BLI, antibody loaded on AHQ sensor
T3 construct: Bought protein
T3 sequence (looked up): T2 sequence (looked up) 2
Method: (§2) The ForteBio affinity assay was performed according to the prior art (Estep, P, et al., High throughput solution based measurement of antibody-antigen affinity and epitope binning MAbs, 2013.5(2): p. 270-8). Briefly, the sensor was equilibrated offline in an assay buffer for […], and was equilibrated online for 60 s to establish a baseline. The purified antibodies obtained as described above were loaded online onto an AHQ sensor (ForteBio) for the ForteBio affinity assay. The sensor with the loaded antibodies was then exposed to 100 nM […] antigens for […] before transferring the sensor to the assay buffer for […] of dissociation to measure the dissociation rate. The kinetic analysis was performed using a 1:1 binding model.
(§3) The equilibrium dissociation constant (KD) for binding of the above 17D1 humanized antibody and 17D1-YTE antibody of the present invention to human interleukin protein human IL-12 (ACRO Biosystems, Cat #IL2-H4210) or human IL-12p40 (ACRO Biosystems, Cat #NK2-H52H7) of the same family was measured by biological optical interferometry (ForteBio) (Table 18).

[4] = target: T4, human IL-12 (ACRO Biosystems, Cat #IL2-H4210) (human, UniProt P29459 23-219; P29460 23-328); test: ForteBio BLI, antibody loaded on AHQ sensor
T4 construct: Bought protein
T4 sequence (looked up) 1: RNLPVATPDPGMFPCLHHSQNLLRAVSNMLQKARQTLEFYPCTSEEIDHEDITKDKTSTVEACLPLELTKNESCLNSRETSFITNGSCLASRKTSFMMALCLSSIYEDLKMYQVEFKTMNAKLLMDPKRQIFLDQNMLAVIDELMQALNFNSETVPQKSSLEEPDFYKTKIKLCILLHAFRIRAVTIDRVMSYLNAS
T4 sequence (looked up) 2: T2 sequence (looked up) 2
Method: as §2, §3

[5] = target: T5, human IL23 protein (human IL12p40 - linker - human IL23p19 - His tag) (human, UniProt P29460 23-328; Q9NPF7 21-189); test: ForteBio BLI, antibody on AHQ sensor, 1:1 model
T5 construct: range 23-328;range 21-189; Single-chain fusion expressed in Expi293 cells; also called IL-23 antigen
T5 sequence: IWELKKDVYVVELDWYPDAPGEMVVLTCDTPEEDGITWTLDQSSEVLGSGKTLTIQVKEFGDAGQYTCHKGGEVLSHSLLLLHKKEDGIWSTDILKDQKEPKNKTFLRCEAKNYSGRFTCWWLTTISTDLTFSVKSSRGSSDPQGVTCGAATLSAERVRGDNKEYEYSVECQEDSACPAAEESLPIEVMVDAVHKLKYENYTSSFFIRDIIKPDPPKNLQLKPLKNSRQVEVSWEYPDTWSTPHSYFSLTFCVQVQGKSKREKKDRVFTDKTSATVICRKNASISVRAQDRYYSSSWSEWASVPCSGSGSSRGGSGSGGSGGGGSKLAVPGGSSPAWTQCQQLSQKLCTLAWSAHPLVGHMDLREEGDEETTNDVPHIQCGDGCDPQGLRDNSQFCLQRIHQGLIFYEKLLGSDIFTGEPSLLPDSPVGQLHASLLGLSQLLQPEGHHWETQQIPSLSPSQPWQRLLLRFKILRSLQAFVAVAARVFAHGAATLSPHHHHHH
Method: The equilibrium dissociation constant (KD) of the above 17D1 humanized antibody and 17D1-YTE of the present invention to human IL-23p19 was measured by biological optical interferometry (ForteBio).
as §2

[6] = target: cynomolgus monkey IL23 protein (cynomolgus IL12p40 - linker - cynomolgus IL23p19 - His tag) (cynomolgus monkey); test: ForteBio BLI, antibody on AHQ sensor, 1:1 model
Method: as §2

[7] = target: T1, human FcRn (Acro, Catalog No. FCM-H5286); test: ForteBio Octet RED96 BLI, biotinylated antibody on SA sensor
Method: In this assay, the ForteBio Octet RED96 System was used to detect the kinetic constant (KD) for binding of 17D1 humanized antibody and 17D1-YTE to human FcRn (Acro, Catalog No. FCM-H5286). The affinity of 17D1-YTE to human FcRn was three times those of 17D1 humanized antibody and reference antibody Gmab.
as §1

Kd [1]: 12.3 nM | koff [1]: 0.0141 s⁻¹ | kon [1]: 1.15e+06 M⁻¹ s⁻¹ | IC50 (inhibition of IL-23-induced IL-17 secretion in mouse splenic lymphocytes, IL-17 ELISA) [2]: 0.113 µg/mL | binding result [3]: no binding (tested: 100 nM) | binding result [4]: no binding (tested: 100 nM) | Kd [5]: 1.75 nM | koff [5]: 0.000164 s⁻¹ | kon [5]: 93700 M⁻¹ s⁻¹ | Kd [6]: 1.67 nM | Response [6]: 0.215 | koff [6]: 8.44e-05 s⁻¹ | kon [6]: 50400 M⁻¹ s⁻¹
B1: 17D1 humanized antibody (antibody, human IgG1, kappa)
heavy: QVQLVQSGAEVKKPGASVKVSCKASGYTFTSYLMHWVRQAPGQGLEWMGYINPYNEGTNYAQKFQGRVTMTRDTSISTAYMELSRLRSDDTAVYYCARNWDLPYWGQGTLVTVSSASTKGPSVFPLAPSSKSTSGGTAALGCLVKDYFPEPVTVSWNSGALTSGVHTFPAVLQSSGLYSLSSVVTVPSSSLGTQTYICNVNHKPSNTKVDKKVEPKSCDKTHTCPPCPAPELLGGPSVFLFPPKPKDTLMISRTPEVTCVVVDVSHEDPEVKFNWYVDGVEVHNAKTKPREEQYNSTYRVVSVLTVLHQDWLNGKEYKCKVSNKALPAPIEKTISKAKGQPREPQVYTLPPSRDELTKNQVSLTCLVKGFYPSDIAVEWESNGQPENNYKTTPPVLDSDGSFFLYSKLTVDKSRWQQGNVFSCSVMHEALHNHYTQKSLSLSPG
light: DIQMTQSPSSLSASVGDRVTITCRASQSISDYLHWYQQKPGKAPKLLIKYASQSMSGVPSRFSGSGSGSDFTLTISSLQPEDFATYYCQQGHSFPFTFGQGTKLEIKRTVAAPSVFIFPPSDEQLKSGTASVVCLLNNFYPREAKVQWKVDNALQSGNSQESVTEQDSKDSTYSLSSTLTLSKADYEKHKVYACEVTHQGLSSPVTKSFNRGEC
notes: Biotinylated for the FcRn assay; also called humanized antibody 17D1; copies: 2 + 2

Kd [1]: 3.34 nM | koff [1]: 0.0033 s⁻¹ | kon [1]: 988000 M⁻¹ s⁻¹ | IC50 (inhibition of IL-23-induced IL-17 secretion in mouse splenic lymphocytes, IL-17 ELISA) [2]: 0.114 µg/mL | fold affinity against 17D1 humanized antibody and Gmab [7]: 3 fold | binding result [3]: no binding (tested: 100 nM) | binding result [4]: no binding (tested: 100 nM) | Kd [5]: 0.611 nM | koff [5]: 5.69e-05 s⁻¹ | kon [5]: 93100 M⁻¹ s⁻¹ | Kd [6]: 0.37 nM | Response [6]: 0.207 | koff [6]: 2.16e-05 s⁻¹ | kon [6]: 58400 M⁻¹ s⁻¹
B2: 17D1-YTE (antibody, human IgG1, kappa)
heavy: QVQLVQSGAEVKKPGASVKVSCKASGYTFTSYLMHWVRQAPGQGLEWMGYINPYNEGTNYAQKFQGRVTMTRDTSISTAYMELSRLRSDDTAVYYCARNWDLPYWGQGTLVTVSSASTKGPSVFPLAPSSKSTSGGTAALGCLVKDYFPEPVTVSWNSGALTSGVHTFPAVLQSSGLYSLSSVVTVPSSSLGTQTYICNVNHKPSNTKVDKKVEPKSCDKTHTCPPCPAPELLGGPSVFLFPPKPKDTLYITREPEVTCVVVDVSHEDPEVKFNWYVDGVEVHNAKTKPREEQYNSTYRVVSVLTVLHQDWLNGKEYKCKVSNKALPAPIEKTISKAKGQPREPQVYTLPPSRDELTKNQVSLTCLVKGFYPSDIAVEWESNGQPENNYKTTPPVLDSDGSFFLYSKLTVDKSRWQQGNVFSCSVMHEALHNHYTQKSLSLSPG
light: B1 light
notes: Biotinylated for the FcRn assay; also called 17D1-YTE antibody; copies: 2 + 2

Kd [1]: 13.2 nM | koff [1]: 0.0148 s⁻¹ | kon [1]: 1.12e+06 M⁻¹ s⁻¹ | IC50 (inhibition of IL-23-induced IL-17 secretion in mouse splenic lymphocytes, IL-17 ELISA) [2]: 0.124 µg/mL | Kd [5]: 1.04 nM | koff [5]: 0.00012 s⁻¹ | kon [5]: 115000 M⁻¹ s⁻¹ | Kd [6]: 0.941 nM | Response [6]: 0.284 | koff [6]: 5.8e-05 s⁻¹ | kon [6]: 61600 M⁻¹ s⁻¹
B3: guselkumab (antibody)
chain 1: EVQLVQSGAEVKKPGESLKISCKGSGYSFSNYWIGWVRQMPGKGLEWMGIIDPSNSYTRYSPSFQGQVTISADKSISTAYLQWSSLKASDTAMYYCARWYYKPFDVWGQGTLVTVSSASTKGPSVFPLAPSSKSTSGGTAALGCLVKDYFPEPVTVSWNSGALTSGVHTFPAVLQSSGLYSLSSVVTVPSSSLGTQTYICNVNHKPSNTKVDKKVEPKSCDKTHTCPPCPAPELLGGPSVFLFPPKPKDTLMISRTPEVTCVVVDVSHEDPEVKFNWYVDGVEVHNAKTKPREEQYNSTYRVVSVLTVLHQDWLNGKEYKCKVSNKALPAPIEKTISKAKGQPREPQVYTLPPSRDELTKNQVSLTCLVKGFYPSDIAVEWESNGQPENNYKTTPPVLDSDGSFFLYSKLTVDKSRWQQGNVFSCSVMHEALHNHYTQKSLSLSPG
chain 2: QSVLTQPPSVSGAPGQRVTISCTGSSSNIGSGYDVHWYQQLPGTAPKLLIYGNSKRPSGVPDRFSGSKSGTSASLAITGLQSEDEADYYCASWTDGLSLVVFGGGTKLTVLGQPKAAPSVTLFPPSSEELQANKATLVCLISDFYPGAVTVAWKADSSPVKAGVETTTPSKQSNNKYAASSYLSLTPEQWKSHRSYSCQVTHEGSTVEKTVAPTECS
